In US20040136982A1 one finds A450 nm/A570 nm data, which are given here for 2 substances.

In test [1] the target is FLAG-sBST2-GST (human) (UniProt Q10589). Nature of the test: ELISA, plate coated with FLAG-sBST2-GST, control IgG1 (κ). In general terms: In an ELISA, binding on a coated surface is turned into a signal by an enzyme label.
The target is the same in test [2]. Nature of the test: ELISA, plate coated with FLAG-sBST2-GST, control IgG4 (κ).

Sequence of FLAG-sBST2-GST (human) (Q10589 other isoform, or with tags, fused parts or gaps): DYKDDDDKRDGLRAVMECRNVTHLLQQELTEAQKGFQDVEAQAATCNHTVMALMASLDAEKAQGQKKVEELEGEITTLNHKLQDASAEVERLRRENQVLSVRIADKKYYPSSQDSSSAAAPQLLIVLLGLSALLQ

For Control IgG1 (κ) (antibody), the A450 nm/A570 nm in test [1] turned out to be 0.014 absorbance. As to Control IgG4 (κ) (antibody), the A450 nm/A570 nm in test [2] amounted to 0.013 absorbance.
